Reference: patent US20070071744A1

What was measured:
Assay in all cases: PepSpot peptide array
peptide 117 (human) = molecular target: T1, peptide 117 (human)
T1 sequence (peptide, N-terminus acetylated): SFTNKVFTTETSR

peptide 118 (human) = molecular target: T2, peptide 118 (human)
T2 sequence (peptide, N-terminus acetylated): TNKVFTTETSRSI

peptide 7 (human) = molecular target: T3, peptide 7 (human)
T3 sequence (peptide, N-terminus acetylated): LCLGRVPAQSGPL

LU (Light Units) (peptide 117 (human)): 472 LU
LU (Light Units) (peptide 118 (human)): 336 LU
LU (Light Units) (peptide 7 (human)): 292 LU
B1: monoclonal antibody hGP 5C4 (antibody, V domains shown)
VH: EVKLQESGGGLVQPGRSLKLSCTASGFTFSDYFMSWVRQAPTRGLEWVASISSGGASAYWRDSVKGRFTISRDNAKSALYLQMDSLRSEDTATYFCARGELDFDYWGQGVMVAVSS
VL: ADPNSTLLSASVGDRVTLNCTASQNVYKNLAWYQQKLGEAPRLLLYSANSQTGIPSRFSGSGSGPDFTLTISSLQPEDVASYFCQQYYSGNTFGAGTKLELKR
